This passage reports Kd results from patent publication US20240400708A1.

B1: feline IgG1a S252F/S434F (antibody, part only; not given: Variable domains, not shown: another chain or arm of the molecule)
constant: ASTTAPSVFPLAPSCGTTSGATVALACLVLGYFPEPVTVSWNSGALTSGVHTFPAVLQASGLYSLSSMVTVPSSRWLSDTFTCNVAHPPSNTKVDKTVRKTDHPPGPKPCDCPKCPPPEMLGGPSIFIFPPKPKDTLFISRTPEVTCLVVDLGPDDSDVQITWFVDNTQVYTAKTSPREEQFNSTYRVVSVLPILHQDWLKGKEFKCKVNSKSLPSPIERTISKAKGQPHEPQVYVLPPAQEELSRNKVSVTCLIKSFHPPDIAVEWEITGQPEPENNYRTTPPQLDSDGTYFVYSKLSVDRSHWQRGNTYTCSVSHEALHFHHTQKSLTQSPGK
B2: feline IgG1a S252H/S428M/S434W (antibody, part only; not given: Variable domains, not shown: another chain or arm of the molecule)
constant: B1 constant with F138H, S316M, F322W
B3: feline IgG1a S434W (antibody, part only; not given: Variable domains, not shown: another chain or arm of the molecule)
constant: B1 constant with F138S, F322W
B4: feline IgG1a S428Y/D312P/S434Y (antibody, part only; not given: Variable domains, not shown: another chain or arm of the molecule; small tags and cut ends)
constant: B1 constant with F138S, D198P, S316Y, F322Y
B5: feline IgG1a S252F/S434W (antibody, part only; not given: Variable domains, not shown: another chain or arm of the molecule)
constant: B1 constant with F322W
B6: feline IgG1a S252Y/L314K/S434Y (antibody, part only; not given: Variable domains, not shown: another chain or arm of the molecule; small tags and cut ends)
constant: B1 constant with F138Y, L200K, F322Y
B7: feline IgG1a S252H/S434F (antibody, part only; not given: Variable domains, not shown: another chain or arm of the molecule)
constant: B1 constant with F138H
B8: feline IgG1a D312P/L314K (antibody, part only; not given: Variable domains, not shown: another chain or arm of the molecule)
constant: B1 constant with F138S, D198P, L200K, F322S
B9: feline IgG1a S428Y/L314K/S434Y (antibody, part only; not given: Variable domains, not shown: another chain or arm of the molecule)
constant: B1 constant with F138S, L200K, S316Y, F322Y
B10: feline IgG1a D312K (antibody, part only; not given: Variable domains, not shown: another chain or arm of the molecule)
constant: B1 constant with F138S, D198K, F322S
B11: feline IgG1a S434Y (antibody, part only; not given: Variable domains, not shown: another chain or arm of the molecule)
constant: B1 constant with F138S, F322Y
B12: feline IgG1a S252H/S428M/D312P (ID No. 221) (antibody, part only; not given: Variable domains, not shown: another chain or arm of the molecule)
constant: B1 constant with F138H, D198P, S316M, F322S
B13: feline IgG1a S252H/S428M/S434Y (antibody, part only; not given: Variable domains, not shown: another chain or arm of the molecule)
constant: B1 constant with F138H, S316M, F322Y
B14: feline IgG1a S252Y/Q311W/L314K (antibody, part only; not given: Variable domains, not shown: another chain or arm of the molecule)
constant: B1 constant with F138Y, Q197W, L200K, F322S
B15: feline IgG1a S252Y/D312P/S434Y (antibody, part only; not given: Variable domains, not shown: another chain or arm of the molecule; small tags and cut ends)
constant: B1 constant with F138Y, D198P, F322Y
B16: feline IgG1a S252Y/S434H/Q311W (antibody, part only; not given: variable domains, not shown: another chain or arm of the molecule)
constant: B1 constant with F138Y, Q197W, F322H
B17: feline IgG1a S252H/S428M/Q311Y (antibody, part only; not given: Variable domains, not shown: another chain or arm of the molecule)
constant: B1 constant with F138H, Q197Y, S316M, F322S
B18: feline IgG1a S252Y/D312P/L314K (antibody, part only; not given: Variable domains, not shown: another chain or arm of the molecule)
constant: B1 constant with F138Y, D198P, L200K, F322S
B19: feline IgG1a S252Y/S434W/Q311W (antibody, part only; not given: Variable domains, not shown: another chain or arm of the molecule)
constant: B1 constant with F138Y, Q197W, F322W
B20: feline IgG1a S252F/S434Y (antibody, part only; not given: Variable domains, not shown: another chain or arm of the molecule)
constant: B1 constant with F322Y
B21: feline IgG1a D312A (antibody, part only; not given: Variable domains, not shown: another chain or arm of the molecule; small tags and cut ends)
constant: B1 constant with F138S, D198A, F322S
B22: feline IgG1a S252H/S428M (antibody, part only; not given: Variable domains, not shown: another chain or arm of the molecule; small tags and cut ends)
constant: B1 constant with F138H, S316M, F322S
B23: feline IgG1a S252H/S428M/S434L (antibody, part only; not given: Variable domains, not shown: another chain or arm of the molecule)
constant: B1 constant with F138H, S316M, F322L
B24: feline IgG1a S252Y/S434R (antibody, part only; not given: Variable domains, not shown: another chain or arm of the molecule; small tags and cut ends)
constant: B1 constant with F138Y, F322R
B25: feline IgG1a S428Y/S434Y (antibody, part only; not given: Variable domains, not shown: another chain or arm of the molecule)
constant: B1 constant with F138S, S316Y, F322Y
B26: feline IgG1a S428Y/D312P (antibody, part only; not given: Variable domains, not shown: another chain or arm of the molecule; small tags and cut ends)
constant: B1 constant with F138S, D198P, S316Y, F322S
B27: feline IgG1a S252Y/S428Y/D312P (antibody, part only; not given: variable domains, not shown: another chain or arm of the molecule)
constant: B1 constant with F138Y, D198P, S316Y, F322S
B28: feline IgG1a S252H/L314K (antibody, part only; not given: Variable domains, not shown: another chain or arm of the molecule; small tags and cut ends)
constant: B1 constant with F138H, L200K, F322S
B29: feline IgG1a S252Y/S434R/Q311W (antibody, part only; not given: Variable domains, not shown: another chain or arm of the molecule)
constant: B1 constant with F138Y, Q197W, F322R
B30: feline IgG1a S252H/Q311Y (antibody, part only; not given: variable domains and light chain, not shown: another chain or arm of the molecule; small tags and cut ends)
constant: B1 constant with F138H, Q197Y, F322S
B31: feline IgG1a S252H/D312P (antibody, part only; not given: variable domains, not shown: another chain or arm of the molecule; small tags and cut ends)
constant: B1 constant with F138H, D198P, F322S
B32: feline IgG1a S252Y/Q311W/D312P (antibody, part only; not given: Variable domains, not shown: another chain or arm of the molecule)
constant: B1 constant with F138Y, Q197W, D198P, F322S
B33: feline IgG1a S252H/Q311W (antibody, part only; not given: Variable domains, not shown: another chain or arm of the molecule; small tags and cut ends)
constant: B1 constant with F138H, Q197W, F322S
B34: feline IgG1a S428Y/Q311W/L314K (antibody, part only; not given: Variable domains, not shown: another chain or arm of the molecule)
constant: B1 constant with F138S, Q197W, L200K, S316Y, F322S
B35: feline IgG1a S252F/S434R (antibody, part only; not given: Variable domains, not shown: another chain or arm of the molecule; small tags and cut ends)
constant: B1 constant with F322R
B36: feline IgG1a S252H/S428M/S434F (antibody, part only; not given: Variable domains, not shown: another chain or arm of the molecule)
constant: B1 constant with F138H, S316M
B37: feline IgG1a S252H/S428M/S434P (antibody, part only; not given: Variable domains, not shown: another chain or arm of the molecule)
constant: B1 constant with F138H, S316M, F322P
B38: feline IgG1a S252Y/S428Y/L314K (antibody, part only; not given: Variable domains, not shown: another chain or arm of the molecule)
constant: B1 constant with F138Y, L200K, S316Y, F322S
B39: feline IgG1a S428Y/L314K (antibody, part only; not given: Variable domains, not shown: another chain or arm of the molecule)
constant: B1 constant with F138S, L200K, S316Y, F322S
B40: feline IgG1a S428Y/Q311W (antibody, part only; not given: Variable domains, not shown: another chain or arm of the molecule)
constant: B1 constant with F138S, Q197W, S316Y, F322S
B41: feline IgG1a S252Y/Q311W (antibody, part only; not given: Variable domains, not shown: another chain or arm of the molecule)
constant: B1 constant with F138Y, Q197W, F322S
B42: feline IgG1a S252Y/S434W (antibody, part only; not given: Variable domains, not shown: another chain or arm of the molecule)
constant: B1 constant with F138Y, F322W
B43: feline IgG1a S428Y/D312P/L314K (antibody, part only; not given: Variable domains, not shown: another chain or arm of the molecule)
constant: B1 constant with F138S, D198P, L200K, S316Y, F322S
B44: feline IgG1a S428Y/Q311W/S434Y (antibody, part only; not given: Variable domains, not shown: another chain or arm of the molecule; small tags and cut ends)
constant: B1 constant with F138S, Q197W, S316Y, F322Y
B45: feline IgG1a S252H/S428M/Q311W (antibody, part only; not given: Variable domains, not shown: another chain or arm of the molecule)
constant: B1 constant with F138H, Q197W, S316M, F322S
B46: feline IgG1a S428Y/Q311W/D312P (antibody, part only; not given: Variable domains, not shown: another chain or arm of the molecule)
constant: B1 constant with F138S, Q197W, D198P, S316Y, F322S

Positions count from the first letter of the chain named. Numbers in names are those of the source.

The target in one experiment is feline FcRn complex (FcRn-α subunit and β-microglobulin), biotin labeled (feline). As to the kind of experiment: SPR, pH 7.4.
B1 registered a Kd of 2350 nM.
On the same count and under the same terms, then B2, with 20.8 nM.
On the same count and under the same terms, with B3 the figure was 21.6 nM; with B4, 864 nM; with B5, 1370 nM.
B6 returned a dissociation constant (Kd) of 2.85 nM.
The same measure, in the same setting: with B7 the figure was 24.1 nM; with B8, 311 nM; with B9, 17.2 nM.
B10: the Kd is 56.1 nM.
Same read-out and setting: then B11, with 14.4 nM; and B12, with 330 nM; and B13, with 20.7 nM.
B14 showed a dissociation constant (Kd) of 179 nM.
On the same count and under the same terms, then B15, with 2.26 nM.
Same read-out and setting: then B16, with 989 nM; and B17, with 141 nM; and B18, with 1820 nM.
Same read-out and setting: with B19 the figure was 2190 nM.
B20 showed an equilibrium dissociation constant (Kd) of 1470 nM.
The same measure, in the same setting: with B21 the figure was 8180 nM; with B22, 101 nM; with B23, 3.55 nM.
Same read-out and setting: with B24 the figure was 10900 nM; with B25, 235 nM; with B26, 2760 nM.
The same measure, in the same setting: with B27 the figure was 4080 nM; with B28, 20 nM.
As to B29, the equilibrium dissociation constant (Kd) was found to be 4.44 nM.
Same read-out and setting: with B30 the figure was 36.5 nM.
As to B31, the equilibrium dissociation constant (Kd) came out at 26.7 nM.
The same measure, in the same setting: with B32 the figure was 1130 nM.
On the same count and under the same terms, with B33 the figure was 25 nM; with B34, 348 nM; with B35, 398 nM.
The same measure, in the same setting: with B36 the figure was 26.9 nM; with B37, 55.6 nM; with B38, 23300 nM.
As to B39, the dissociation constant (Kd) is 1850 nM.
The molecule B40 gave a Kd of 7630 nM.
Still for that read-out and setting: with B41 the figure was 953 nM; with B42, 8380 nM; with B43, 6860 nM.
In turn, B44 came in with a Kd of 1510 nM.
Same read-out and setting: with B45 the figure was 54.6 nM.
Same read-out and setting: then B46, with 4190 nM.

The target is the same in a further experiment. As to the kind of experiment: SPR, pH 6.
In the case of B1, the dissociation constant Kd is 173 nM.
Consider B2, for which the dissociation constant Kd was 0.135 nM.
Still for that read-out and setting: then B3, with 0.771 nM.
The same measure, in the same setting: with B4 the figure was 1.48 nM.
On the same count and under the same terms, then B5, with 6.15 nM.
B6 gave a Kd of 0.0496 nM.
The same measure, in the same setting: then B7, with 0.391 nM.
Consider B8, for which the equilibrium dissociation constant (Kd) stood at 7.24 nM.
The molecule B9 had a Kd of 0.793 nM.
On the same count and under the same terms, with B10 the figure was 5.86 nM; with B11, 0.433 nM; with B12, 8.22 nM.
B13 came in with a Kd of 0.138 nM.
On the same count and under the same terms, then B14, with 10.8 nM; and B15, with 0.0221 nM.
B16 came in with a dissociation constant (Kd) of 8.39 nM.
The same measure, in the same setting: then B17, with 5.73 nM.
Same read-out and setting: with B18 the figure was 26.7 nM.
Still for that read-out and setting: with B19 the figure was 6.59 nM; with B20, 9.28 nM.
On to B21, for which the Kd was 6.95 nM.
Same read-out and setting: then B22, with 2.65 nM; and B23, with 8.59 nM; and B24, with 4.12 nM.
Still for that read-out and setting: with B25 the figure was 4.65 nM.
Same read-out and setting: with B26 the figure was 34.1 nM; with B27, 15.1 nM.
As to B28, the dissociation constant (Kd) came to 6.37 nM.
The same measure, in the same setting: then B29, with 0.143 nM; and B30, with 12.1 nM; and B31, with 3.9 nM.
On the same count and under the same terms, then B32, with 35.2 nM; and B33, with 6.04 nM; and B34, with 10.1 nM.
Still for that read-out and setting: then B35, with 3.59 nM.
The molecule B36 showed a Kd of 0.121 nM.
Same read-out and setting: then B37, with 7.45 nM; and B38, with 7.93 nM.
The same measure, in the same setting: then B39, with 7.63 nM.
The same measure, in the same setting: then B40, with 12.7 nM; and B41, with 26.9 nM.
Turning to B42, the Kd was 10.2 nM.
For B43, the Kd amounted to 15.2 nM.
Still for that read-out and setting: with B44 the figure was 3.8 nM; with B45, 3.14 nM.
B46 registered a Kd of 26 nM.
